According to article PMC5001605:

Target: archaeal KEOPS complex (pfuPcc1, mjKae1, mjBud32, mjCgi121) (Pyrococcus furiosus | Methanococcus jannaschii) (UniProt Q8TZI1)
Experiment: SEC-MALS

In the case of “archaeal KEOPS complex (pfuPcc1, mjKae1, mjBud32, mjCgi121) (from UniProt Q8TZI1 1-82; Q58530 1-328; Q58530 1-535; Q57646 1-145)”, the stoichiometry N is reported as 2.
